One series relates to hTCEpi cells. Nature of the series: RT-qPCR of inflammation-related genes in siACE2-transfected hTCEpi cells treated with losartan. Format: cell-based. The following applies: 100 μM losartan, 24 hours. How it is done:
To examine if ACE2 deficiency-induced cytokine production is due to an increase in AngII activity, we investigated whether treatment of corneal epithelial cells with the AngII type 1 receptor (AT1R) antagonist, losartan could rescue the phenotype. hTCEpi deficient in ACE2 were treated with 100 μm losartan for 24 hrs and the cytokine response was evaluated.
Immortalized corneal epithelial cells, hTCEpi, were cultured in keratinocyte serum free media (Thermo Fisher Scientific, Waltham, Mass., USA) as described before^39. For siRNA knock-down experiments, cells were transfected with 10 nM siRNA SMARTpools against ACE2 and non-target control (GE Dharmacon, Colorado, USA) as previously described^37. Two days after transfection, cells were treated with losartan (100 μM) for 24 hours, and processed for total RNA isolation.
Total RNAs were isolated from hTCEpi cells and purified with a miRNeasy kit (Qiagen, Hilden, Germany). Real-time qPCR (RT-qPCR) was performed with a Roche LightCycler 96 System using the Roche FastStart Essential DNA Green Master (Roche, Branchburg, N.J., USA) according to the manufacturer's instructions.
Unpaired t-test were performed to determine statistical significance. The data are shown as means±standard deviation (SD). The differences were considered significant for p values of <0.05. All experiments were replicated at least three times.
For orientation: In qPCR the cycle at which signal appears reflects the starting amount.

In series [1] the test system is Angiotensin II. In words: enzymatic activity of ACE2 truncates. Format: biochemical.
Series [2] relates to Angiotensin II. The settings on record: as disclosed in U.S. Pat. No. 10,443,049; cited from earlier work.
Series [3] can be described thus: ACE2 activity in eyes of ACE2-knockout mice after topical corneal application. The format is in vivo, mouse. The settings on record: ACE2-KO mice, after one hour; for ACE2 activity in eyes: topical to cornea, 5 μg/μl in PBS or in 0.5% DMSO in PBS, vs untreated. As for the experimental part:
ACE2 activity was assessed in eyes isolated from ACE2-deficient mice.

Series [4] can be described thus: duration of action in vivo after one injection (enzymatic activity in plasma, blood pressure). The following applies: determined by enzymatic activity in plasma and by biologic response (blood pressure).
Series [5] is described as follows: anti-ACE2 immunofluorescence of cornea of ACE2-KO mice after NaOH treatment and topical administration. Format: in vivo, mouse. The settings on record: cornea treated with NaOH for 30 s, then topical administration. As for the experimental part:
The corneas of ACE2-KO mice were treated with NaOH for 30 s and then were topically administered ACE2 1-618-ABD. The cornea were subjected to immunofluorescence using anti-ACE2 antibodies. (See FIG. 13).

“Also recorded” adds a separate entry of the source.

As for `CCCCc1nc(Cl)c(CO)n1Cc1ccc(-c2ccccc2-c2nn[nH]n2)cc1` [losartan], the “pro-inflammatory activity / cytokine storm-like phenotype in ACE2 depleted corneal epithelial cells” value in the series on hTCEpi cells was “partially rescued”. Further, in the series on hTCEpi cells (RT-qPCR), the “expression of CCL2” value is listed as “decreased; also recorded: significantly blocked”, the “expression of CXCL8” value was “only slightly altered”, the “expression of IL1B” value is listed as “only slightly altered” and the “expression of ILIA” value was “decreased; also recorded: significantly blocked”. The “expression of TNFA” value in the series on hTCEpi cells (RT-qPCR) is given as “decreased; also recorded: significantly blocked”. For the same compound, the “pro-inflammatory activity / cytokine storm-like phenotype in ACE2 depleted corneal epithelial cells” value in the series with hTCEpi cells (listed as Losartan) is “partially reverse”.
Regarding “1-618: ACE2 truncate, human ACE2 amino acids 1-618 [Group 1-618]”, the “enzyme activity of ACE2 truncate” value in the series with Angiotensin II [1] is on record as “enzymatically active”.
“1-605: ACE2 truncate, amino acids 1-605, C-terminal deletion relative to SEQ ID NO:1 [Group 1-605]”: the “enzymatic activity of ACE2 fragment” value with Angiotensin II [2] is given as “very high enzymatic activity”. Also, the “enzyme activity of ACE2 truncate” value with Angiotensin II [1] is on record as “enzymatically active”.
For the compound “1-522: ACE2 truncate, amino acids 1-522, not enzymatically active [Group 1-522]”, in the series on Angiotensin II [1], the “enzyme activity of ACE2 truncate” value is “not active”.
“1-619: ACE2 truncate, amino acids 1-619, C-terminal deletion relative to SEQ ID NO:1 [Group 1-619]”: the “enzymatic activity of ACE2 fragment” value in the series with Angiotensin II [2] is “very high enzymatic activity”. The “enzyme activity of ACE2 truncate” value in the series with Angiotensin II [1] was “enzymatically active”.
Regarding “ACE2 1-618ABD: human ACE2 amino acids 1-618 fused to albumin binding domain (ABDCon) via a GS4 linker”, the “effect of DMSO on detectable ACE2 activity in eyes” value in series [3] (5 μg/μl in 0.5% DMSO in PBS vs in PBS) was “enhance detectable ACE2 activity”. Further, the “ACE2 activity in eyes” value in series [3] is on record as “Detectable ACE2 activity was observed”; in series [3] (listed as hr ACE2 1-618ABD), “Recovery of ACE2 activity”. For the same compound, the “duration of action of one injection” value in series [4] is given as “at least 4 days”. Besides, in series [5], the “ACE2 staining by immunofluorescence in the cornea” value is on record as “Appearance of ACE2 staining”.

Values taken from patent publication US20210386837A1, “ACTIVE LOW MOLECULAR WEIGHT VARIANTS OF ANGIOTENSIN CONVERTING ENZYME 2 (ACE2) FOR THE TREATMENT OF DISEASES AND CONDITIONS OF THE EYE” (Northwestern University, priority 2020, published 2021).
